For experiment [1], the target named is human CD2 on primary human T cells (human) (UniProt P06729). Nature of the experiment: flow cytometry, calculated Kd of competitor antibody; human CD4 naïve T cells.
For experiment [2] the target is unchanged. The experiment can be described thus: flow cytometry, calculated Kd of competitor antibody; human CD8 naïve T cells.
Experiment [3] has the same target. The experiment can be described thus: flow cytometry, calculated Kd of competitor antibody; human CD4 memory T cells.
Experiment [4] has the same target. The experiment can be described thus: flow cytometry, calculated Kd of competitor antibody; human CD8 memory T cells.
For experiment [5] the target is unchanged. The experiment can be described thus: flow cytometry, calculated Kd of competitor antibody; expanded human CD4 Treg cells.
For experiment [6] the target is unchanged. Nature of the experiment: flow cytometry, calculated Kd of competitor antibody; human CD4 central memory T cells.
Experiment [7] has the same target. Nature of the experiment: flow cytometry, calculated Kd of competitor antibody; human CD4 effector memory T cells.

“And” between values parts separate entries of the source, which are not always exact repeats. Identical values can stand only once.

Chain of human CD2 on primary human T cells (human) (P06729 25-351): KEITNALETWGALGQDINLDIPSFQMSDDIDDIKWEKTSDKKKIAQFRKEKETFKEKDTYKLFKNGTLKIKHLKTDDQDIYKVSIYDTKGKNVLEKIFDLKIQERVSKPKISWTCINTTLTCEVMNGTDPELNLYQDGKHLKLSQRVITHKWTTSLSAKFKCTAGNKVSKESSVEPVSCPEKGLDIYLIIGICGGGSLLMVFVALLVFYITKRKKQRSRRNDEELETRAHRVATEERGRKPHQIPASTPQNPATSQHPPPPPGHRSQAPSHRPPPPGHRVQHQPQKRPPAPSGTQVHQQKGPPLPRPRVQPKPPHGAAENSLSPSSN

For “anti-CD2-FITC (clone RPA2.10) (antibody)”, the Kd in experiment [1] is 0.0182 µM and 0.0238 µM; in experiment [2], 0.0148 µM and 0.031 µM; in experiment [3] it was 0.0237 µM and 0.042 µM; in experiment [4] it was 0.011 µM; in experiment [5], 0.0679 µM; in experiment [6], 0.0447 µM. The Kd in experiment [7] is 0.034 µM.

A word on the Kd: it is a measure of binding affinity in units of concentration.

The values above are taken from patent publication US20210032308A1.
